# Measured values: paper PMC10621737
# T1: rMtbEspR (Mycobacterium tuberculosis H37Rv, UniProt P9WJB7 1-132)
# T1 sequence: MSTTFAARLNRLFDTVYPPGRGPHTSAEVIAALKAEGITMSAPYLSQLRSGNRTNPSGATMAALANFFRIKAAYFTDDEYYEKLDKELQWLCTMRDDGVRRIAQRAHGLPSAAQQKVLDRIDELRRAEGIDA
# Biological target: T1, rMtbEspR
# Test: EMSA; poly(dI-dC) 50 ng/ml
# Settings: protein: recombinant; tags: N- and C-terminal 6xHis; chain copies: 2; label: 32P 5' end (T4 PNK); blunt
row,Binder,binding result
1,HIV LTR EMSA probe (dsDNA) DNA 1: CAGTTGAACCAGAGCAAGTAGAAGAGGCC DNA 2: GGCCTCTTCTACTTGCTCTGGTTCAACTG,no binding
2,IL-4 promoter full EMSA probe (FL) (dsDNA) DNA 1: CTATGCAAAGCAAAAAGCCAGCAGCAGCCCCAAGCTGATAAGATTAATCTAAAGAGCAAATTATGGTG DNA 2: CACCATAATTTGCTCTTTAGATTAATCTTATCAGCTTGGGGCTGCTGCTGGCTTTTTGCTTTGCATAG,binds
3,IFN-gamma promoter EMSA probe (dsDNA) DNA 1: GAATTTCGTTTTTCACTTGTTCCCAACCACAAGCAAATGATCAATGT DNA 2: ACATTGATCATTTGCTTGTGGTTGGGAACAAGTGAAAAACGAAATTC,no binding
